# Laboratory results published in patent US20260116958A1 (University of California, published 2026).
# Read-outs that look alike come from different tables or passages of the source.
# Legend:
# active BoNT/G holotoxin [1] = target: T1, active BoNT/G holotoxin (Clostridium botulinum, UniProt Q60393 2-1297); assay: KinExA, IgG
# T1 sequence: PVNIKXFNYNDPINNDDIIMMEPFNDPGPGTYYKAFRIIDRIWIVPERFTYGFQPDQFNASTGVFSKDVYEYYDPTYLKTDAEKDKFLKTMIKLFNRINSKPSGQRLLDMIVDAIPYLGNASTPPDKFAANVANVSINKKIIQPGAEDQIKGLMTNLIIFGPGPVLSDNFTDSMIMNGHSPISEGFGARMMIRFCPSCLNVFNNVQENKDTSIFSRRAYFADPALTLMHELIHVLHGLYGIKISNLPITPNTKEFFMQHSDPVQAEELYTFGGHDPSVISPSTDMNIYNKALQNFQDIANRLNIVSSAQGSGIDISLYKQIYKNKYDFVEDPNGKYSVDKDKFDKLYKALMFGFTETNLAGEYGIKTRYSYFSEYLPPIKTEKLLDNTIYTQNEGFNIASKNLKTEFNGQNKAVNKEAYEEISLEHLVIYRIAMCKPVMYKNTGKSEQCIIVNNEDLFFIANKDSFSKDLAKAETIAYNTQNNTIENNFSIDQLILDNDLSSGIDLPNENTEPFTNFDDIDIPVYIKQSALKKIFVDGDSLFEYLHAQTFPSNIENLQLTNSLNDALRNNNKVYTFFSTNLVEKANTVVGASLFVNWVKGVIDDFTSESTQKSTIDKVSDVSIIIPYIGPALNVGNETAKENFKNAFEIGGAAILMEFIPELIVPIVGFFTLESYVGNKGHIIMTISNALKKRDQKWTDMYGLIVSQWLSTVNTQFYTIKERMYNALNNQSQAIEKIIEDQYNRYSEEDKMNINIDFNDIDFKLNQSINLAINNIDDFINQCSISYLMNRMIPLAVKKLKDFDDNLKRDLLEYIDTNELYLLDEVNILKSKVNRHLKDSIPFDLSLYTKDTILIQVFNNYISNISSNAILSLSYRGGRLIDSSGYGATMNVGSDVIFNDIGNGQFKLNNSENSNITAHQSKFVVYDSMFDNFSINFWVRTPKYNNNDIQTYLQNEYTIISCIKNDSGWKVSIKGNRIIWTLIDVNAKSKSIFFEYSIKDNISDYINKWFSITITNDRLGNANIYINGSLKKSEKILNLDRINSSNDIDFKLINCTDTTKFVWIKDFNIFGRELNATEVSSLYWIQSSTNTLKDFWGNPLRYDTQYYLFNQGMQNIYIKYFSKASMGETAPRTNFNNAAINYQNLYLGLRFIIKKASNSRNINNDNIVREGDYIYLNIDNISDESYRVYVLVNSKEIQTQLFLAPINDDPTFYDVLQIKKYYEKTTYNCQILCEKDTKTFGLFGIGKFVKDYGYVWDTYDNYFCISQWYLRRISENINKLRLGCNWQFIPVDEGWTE
# active BoNT/G holotoxin [2] = target: T1, active BoNT/G holotoxin; assay: KinExA, IgG; remark: listed apart in the source
# [3] = target: inactive BoNT/G (BoNT/Gi) (Clostridium botulinum) (UniProt Q60393); assay: titration on yeast-displayed scFv, flow cytometry, fit y = m1 + m2*M0/(m0+m3)
# [4] = target: T2, inactive BoNT/G (BoNT/Gi) (Clostridium botulinum, UniProt Q60393 1-1297); assay: FACS, scFv on yeast
# T2 sequence: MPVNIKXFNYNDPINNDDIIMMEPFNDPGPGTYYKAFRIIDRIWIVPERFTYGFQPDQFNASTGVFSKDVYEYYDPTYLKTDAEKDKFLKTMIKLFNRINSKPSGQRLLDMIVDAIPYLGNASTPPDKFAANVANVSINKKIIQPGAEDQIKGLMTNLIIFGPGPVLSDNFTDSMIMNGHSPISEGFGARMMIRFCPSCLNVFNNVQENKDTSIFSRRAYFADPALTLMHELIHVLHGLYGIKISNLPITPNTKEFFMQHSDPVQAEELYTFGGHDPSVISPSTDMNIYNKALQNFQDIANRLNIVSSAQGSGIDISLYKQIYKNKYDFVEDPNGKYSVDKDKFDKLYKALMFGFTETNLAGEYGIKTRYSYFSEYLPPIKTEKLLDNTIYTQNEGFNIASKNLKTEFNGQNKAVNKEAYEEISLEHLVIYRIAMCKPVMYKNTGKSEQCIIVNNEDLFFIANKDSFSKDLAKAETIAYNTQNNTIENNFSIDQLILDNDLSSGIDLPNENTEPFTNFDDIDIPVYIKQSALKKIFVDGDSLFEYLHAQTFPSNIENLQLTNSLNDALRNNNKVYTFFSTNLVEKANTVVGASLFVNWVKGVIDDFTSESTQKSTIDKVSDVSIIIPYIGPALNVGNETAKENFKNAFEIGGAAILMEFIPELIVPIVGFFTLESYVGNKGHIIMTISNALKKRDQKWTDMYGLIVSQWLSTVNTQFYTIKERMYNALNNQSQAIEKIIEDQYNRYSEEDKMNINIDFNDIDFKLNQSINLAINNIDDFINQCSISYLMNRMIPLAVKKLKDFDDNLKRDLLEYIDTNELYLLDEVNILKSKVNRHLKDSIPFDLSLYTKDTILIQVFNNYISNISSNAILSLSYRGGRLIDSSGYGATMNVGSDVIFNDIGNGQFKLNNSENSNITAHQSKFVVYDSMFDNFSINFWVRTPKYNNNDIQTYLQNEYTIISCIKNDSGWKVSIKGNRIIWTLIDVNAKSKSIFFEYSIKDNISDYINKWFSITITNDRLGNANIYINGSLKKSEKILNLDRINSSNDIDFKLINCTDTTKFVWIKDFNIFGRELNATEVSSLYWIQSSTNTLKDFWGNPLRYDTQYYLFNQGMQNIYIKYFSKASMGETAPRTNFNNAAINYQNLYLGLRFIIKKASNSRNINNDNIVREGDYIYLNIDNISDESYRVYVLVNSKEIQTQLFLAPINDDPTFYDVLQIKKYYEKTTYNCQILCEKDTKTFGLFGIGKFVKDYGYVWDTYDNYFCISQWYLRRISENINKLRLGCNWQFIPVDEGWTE
# [5] = target: T2, inactive BoNT/G (BoNT/Gi); assay: titration on yeast-displayed scFv, flow cytometry, fit y = m1 + m2*M0/(m0+m3)
# [6] = target: T2, inactive BoNT/G (BoNT/Gi); assay: as above; remark: listed apart in the source
# [7] = target: inactive BoNT/G (BoNT/Gi) (Clostridium botulinum) (UniProt Q60393); assay: FACS, scFv on yeast
# [8] = target: inactive BoNT/G (BoNT/Gi) (Clostridium botulinum) (UniProt Q60393); assay: flow cytometry, scFv on yeast
# [9] = target: inactive BoNT/G (BoNT/Gi) (Clostridium botulinum) (UniProt Q60393); assay: flow cytometry, scFv on yeast surface
# [10] = target: inactive BoNT/G (BoNT/Gi) (Clostridium botulinum) (UniProt Q60393); assay: scFv on yeast surface
binder,measurement,setting,value
"Hu6G10 IgG (antibody, V domains shown) VH: QVQLVQSGAEVKKPGATVKISCKASGYSFTGYFMHWVRQAPGKGLEWIGRINPYNGDIIYNQNFKDRATLTVDKSTSTAYMELSSLRSEDTAVYYCASLFGLYYFDYWGQGTTLTVSS VL: DVVMTQSPSSVSASVGDRVTITCRASQRISNHLNWYQQKPGKAPKRLIYAASSLESGVPSRFSGSGSGTEFTLTISSLQPEDFATYFCLQHNSYPYTFGQGTKVEIKR",fold improvement over 6G10 (IgG KD),active BoNT/G holotoxin [1],39 fold
same,Kd,active BoNT/G holotoxin [2],0.00836 nM
"hu6G7.1A5 (scFv, V domains shown) VH: QVQLVQSGAEVKKPGASVKVSCKASDYSFTDYNIYWVRQAPGQGLEWIGYIDPYNGGTSYNQKFKGRATLTVDKSISTAYMELSRLRSDDTAVYYCALYGYDPDYIDYWGPGTTLTVSS VL: DIVLTQSPASMAASPGQRVTITCSASSSVSYLHWFQQKPGQSPKLMIYGTSNLASGVPVRFSGSGSGTSYSLTINPMEAEDTATYYCQQRSSYPYTFGQGTKLEIK",Kd,[3],4.91 nM
"hu6G7.1D6 (scFv, V domains shown) VH: QVQPVQSGAEVKKPGASVKVSCKASDYSFTDYNIYWVRQAPGQGLEWIGYIDPYNGGTSYNQKYRGRATLTVDKSINTAYMELSRLRSDDTAVYYCALYGYDPDYIEYWGQGTTLTVSS VL: DIVLTQSPASMAASPGQRVTITCSASSSVSYLHWFQQKPGQSPKLWIYSTSNLASGVPARFSGSGSGTDYTLTINPMEAEDTATYYCQQRSSYPYTFGQGTKLEIK",Kd,[3],5.03 nM
"Hu6G7.2 scFv (scFv, V domains shown) VH: QVQLVQSGAEVKKPGASVKVSCKASDYSFTDYNIYWVRQTPGQGLEWIGYIDPYNGGTSYNQKFKGRATLTVDKSISTAYMELSRLRSDDTAVYYCALYGYDPDYTEYWGQGTTLTVSS VL: DIVLTQSPASMAVSPGQRVTITCSASSSVSYLHWFQQKPGQSPKLWIYSTSNLASGVPARFSGSGSGTDYTLTINPMEAEDTATYYCQQRSSYPYTFGQGTKLEIKR",Kd,[4],1.42 nM
same,Kd,[5],3.93 nM
same,Kd,[6],1.42 nM
"Hu6G7.1 scFv (scFv, V domains shown) VH: QVQLVQSGAEVKKPGASVKVSCKASDYSFTDYNIYWVRQTPGQGLEWIGYIDPYNGGTSYNQKFKGRATLTVDKSISTAYMELSRLRSDDTAVYYCALYGYDPDYIDYWGQGTTLTVSS VL: DIVLTQSPASMAVSPGQRVTITCSASSSVSYLHWFQQKPGQSPKLWIYSTSNLASGVPARFSGSGSGTDYTLTINPMEAEDTATYYCQQRSSYPYTFGQGTKLEIKR",Kd,[4],3.2 nM
same,Kd,[6],3.2 nM
"6G9A2 (scFv, V domains shown) VH: QVQLVQSGAEVKKPGASVKMSCKASGYTFTSYWMHWVRQAPGQGLEWIGYINPSTGYTEYNQKFKDRATLTADKSTSTAYMELRSLRSDDTAVYYCARGGNYVDYWGQGTTLTVSS VL: DVVMTQSPSFLSASVGDRVTVTCRASQSIGSWLAWYQQKPGKAPKLLIYAASSLQSGVPSRFSASGSGTDFTLTISSLQPDDFATYFCHRLNSYPLTFGGGTKVEIK",Kd,[3],6.2 nM
"6G9B9 (scFv, V domains shown) VH: QVQLVQSGAEVKKPGASVKMSCKASGYTFTSYWMHWVRQAPGQGLEWIGYINPSTGYTEYNQKFKDRATLTADKSTSTAYMELRSLRSDDTAVYYCARGGNYVDYWGQGTTLTVSS VL: DIQMTQSPSTLSASVGERVTITCRASQGISSWLAWYQQKPGKAPKRLIYAVSTLQTGVPSRFSGSGSGTDLTLTINSLQPEDFATYYCQHLNSYPLTFGGGTKVEIK",Kd,[3],3.78 nM
Hu6G9.1 scFv (scFv) scFv: QVQLVQSGAEVKKPGASVKMSCKASGYTFTSYWMHWVRQAPGQGLEWVGYINPSTGYTEYNQKFKDRATLTADKSTSTAYMELRSLRSDDTAVYYCARGGNYVDYWGQGTTLTVSSVDLKSGGSTSGSGKPGSGEGSSGSARDIQMTQSPSTLSASVGERVTITCRASHGISSWLAWYQQKPGKAPKRLIYAVSTLQTGVPSRFSDSGSGTDLTLTINSLQPEDFATYYCQDLNSYPLSFGGGTKVEIK,Kd,[7],2.04 nM
same,fold improvement in affinity over hu6G9 WT,[8],9 fold
same,fold improvement over wild type hu6G9,[9],9 fold
hu6G6 scFv (scFv) scFv: QVQLVQSGAEVKKPGASVKLSCKASGFNIKDTYMHWVRQAPGQGLEWIGRIDPANGNTKYDPKFQGRATITADTSINTAYLELSRLRSDDTAVYYCASGPNYYGTTWFAYWGQGTTVTVSSVDLKSGGSTSGSGKPGSGEGSSGSAREIVLTQSPSTLSASVGDRVTITCRASHGISNYLAWYQQKPGRAPKLLIYKASTLHIGVPSRFSGSGSGTEFALTISSLQPDDFSTYYCQQYNSYLPHTFGQGTRLEIK,Kd,[7],23 nM
same,Kd,[10],5 nM
same,fold improvement over parental 6G6,[10],> 3 fold
same,Kd,[8],23.2 nM
"hu6G6.1 IgG (antibody, V domains shown) VH: QVQLVQSGAEVKKPGASVKLSCKASGFNIKDTYMHWVRQAPGQGLEWIGRIDPENGNTKYDPKFQGRATITAYKSINTAYLELSRLRSDDTAVYYCASGPNYYGTTWFAYWGQGTTVTVSS VL: EIVLTQSPSTLSASVGDRVTITCRASHGISNYLAWYQQKPGRAPKLLIYKASTLHIGVPSRFSGSGSGTEFALTISSLQPDDFSTYYCQQYNSYLPHTFGQGTRLEIKR",Kd,active BoNT/G holotoxin [1],0.476 nM
same,fold improvement over hu6G6,active BoNT/G holotoxin [1],18 fold
same,Kd,active BoNT/G holotoxin [2],0.47 nM
